Entries after “also recorded” stand apart in the source; their conditions may differ. Marks after values point to notes of the source that are not given here.
Experiments:
HPV-16 [1] = experiment: qPCR sensitivity against HPV-HNSCC tumor samples diluted among 10 ng normal human DNA
HPV16 DNA [2] = experiment: CLIA test for HPV16, performance characteristics in plasma
Source text: (§1) These primer/probe sets were adapted for development of a CLIA test for HPV16 DNA detection in plasma and salivary rinses (Table 2). Test performance was improved, so that analytical sensitivity in salivary rinse spike in assays ranges from 2.5-5.0 DNA copies/mL with 100% specificity for the three primer/probe sets that are now part of the component assay, resulting in a five-fold improvement in analytic sensitivity that is in the range of sensitivity found in sequence based liquid biopsy methods (FIG. 23, Table 2). Additionally, the assays can be used quantitatively, with measuring ranges between 2.0 log10-7.0 log10 copies/mL.

HPV-16 [3] = experiment: qPCR on 20 ng DNA from saliva samples of HPV-HNSCC patients
Procedure: All samples were run in triplicates.
The sensitivity of detection from saliva 20 ng DNA samples is 32.1% (9/28) in E6 primer-probe sets, 42.9% (12/28) in E7 primer-probe sets, 35.7% (10/28) in “Min-5” primer-probe sets, 46.4% (13/28) in “Max-10” primer-probe sets. The sensitivity of combination of “5” and “10” is 50% (14/28) and that of E6 and E7 is 42.9% (12/28). By the standard curve analysis, the copy numbers that detected by “Max-10” primer-probe sets were the highest in these 4 primer-probe sets. The slope of standard curve is −3.5 in “Min-5” primer-probe sets when delta Rn is plotted against cycle threshold (FIG. 5).

HPV16 DNA [4] = experiment: CLIA test for HPV16, performance characteristics in salivary rinse
Source text: as §1

HPV-16 genome = experiment: qPCR sensitivity against HPV-16 copy number (known-copy HPV-16 DNA among 10 ng normal human DNA); conditions: for reaction under 10 copies of HPV-16 genome / reaction under 30 copies of HPV-16 genome: among 10 ng normal DNA, triplicate qPCR
HPV DNA = experiment: CLIA HPV test pilot study on saliva rinse samples from HPV-positive HNSCC patients and non-cancer controls; parameters: species or system HPV16; HPV16 DNA measured by CLIA HPV test: unit not given here
Procedure: As a final validation, Applicants a small pilot study was performed on a blinded set of saliva rinse samples from 28 patients with HPV-positive HNSCC and 15 salivary rinses from non-cancer controls. […] The sensitivity increased to 96% when all three sets were used (Table 3).

[5] = tumor DNA dilution, fraction of 32 samples
[6] = first template ('... HPV16', word is an image)
[7] = second template (name is an image)
[8] = samples tested 3 times, 10 ng DNA from healthy individual

B1: BR E1-5: HPV-16 E1 region primer/probe set, SEQ ID NO: 40-42 (same as SEQ ID NO: 1-3) (nucleic acid)
DNA 1: GCACAATTGGCAGACACTAAT
DNA 2: GCACAATCCTTTACAATTTTTGCC
DNA 3: AGTAATGCAAGTGCCTTTCTAAAAAGTAATTC
modifications: chemistry not given here
HPV-16 [1]; 32 HPV-HNSCC tumor samples
  sensitivity under 100 cells: 96.9%
HPV-16 [1]; 32 HPV-HNSCC tumor samples, 6.6 pg DNA
  sensitivity under single cells: 28.1%
HPV-16 [1]; 32 HPV-HNSCC tumor samples, 66 pg DNA
  sensitivity under 10 cells: 68.7%
HPV-16 [1]; Sample # 1
  Threshold of tumor cell numbers for HPV-16 detection: 60.0 tumor cells
HPV-16 [1]; Sample # 2
  Threshold of tumor cell numbers for HPV-16 detection: 150.0 tumor cells
HPV-16 [1]; Sample # 3
  Threshold of tumor cell numbers for HPV-16 detection: 30.0 tumor cells
HPV-16 [1]; Sample # 4
  Threshold of tumor cell numbers for HPV-16 detection: 6.0 tumor cells
HPV-16 [1]; Sample # 5
  Threshold of tumor cell numbers for HPV-16 detection: 6.0 tumor cells
HPV-16 [1]; Sample # 6
  Threshold of tumor cell numbers for HPV-16 detection: 15.0 tumor cells
HPV-16 [1]; Sample # 7
  Threshold of tumor cell numbers for HPV-16 detection: 30.0 tumor cells
HPV-16 [1]; Sample # 8
  Threshold of tumor cell numbers for HPV-16 detection: 30.0 tumor cells
HPV-16 [1]; Sample # 9
  Threshold of tumor cell numbers for HPV-16 detection: 1.2 tumor cells
HPV-16 [1]; Sample # 10
  Threshold of tumor cell numbers for HPV-16 detection: 6.0 tumor cells
HPV-16 [1]; Sample # 11
  Threshold of tumor cell numbers for HPV-16 detection: 30.0 tumor cells
HPV-16 [1]; Sample # 12
  Threshold of tumor cell numbers for HPV-16 detection: 30.0 tumor cells
HPV-16 [1]; Sample # 13
  Threshold of tumor cell numbers for HPV-16 detection: 6.0 tumor cells
HPV-16 [1]; Sample # 14
  Threshold of tumor cell numbers for HPV-16 detection: 6.0 tumor cells
HPV-16 [1]; Sample # 15
  Threshold of tumor cell numbers for HPV-16 detection: 6.0 tumor cells
HPV-16 [1]; Sample # 16
  Threshold of tumor cell numbers for HPV-16 detection: 6.0 tumor cells
HPV-16 [1]; Sample # 17
  Threshold of tumor cell numbers for HPV-16 detection: 1.2 tumor cells
HPV-16 [1]; Sample # 18
  Threshold of tumor cell numbers for HPV-16 detection: 0.2 tumor cells
HPV-16 [1]; Sample # 19
  Threshold of tumor cell numbers for HPV-16 detection: 1.2 tumor cells
HPV-16 [1]; Sample # 20
  Threshold of tumor cell numbers for HPV-16 detection: 3.0 tumor cells
HPV-16 [1]; Sample # 21
  Threshold of tumor cell numbers for HPV-16 detection: 0.6 tumor cells
HPV-16 [1]; Sample # 22
  Threshold of tumor cell numbers for HPV-16 detection: 0.3 tumor cells
HPV-16 [1]; Sample # 23
  Threshold of tumor cell numbers for HPV-16 detection: 1.2 tumor cells
HPV-16 [1]; Sample # 24
  Threshold of tumor cell numbers for HPV-16 detection: 0.6 tumor cells
HPV-16 [1]; Sample # 25
  Threshold of tumor cell numbers for HPV-16 detection: 0.3 tumor cells
HPV-16 [1]; Sample # 26
  Threshold of tumor cell numbers for HPV-16 detection: 0.6 tumor cells
HPV-16 [1]; Sample # 27
  Threshold of tumor cell numbers for HPV-16 detection: 0.6 tumor cells
HPV-16 [1]; Sample # 28
  Threshold of tumor cell numbers for HPV-16 detection: 0.6 tumor cells
HPV-16 [1]; Sample # 29
  Threshold of tumor cell numbers for HPV-16 detection: 1.0 tumor cells
HPV-16 [1]; Sample # 30
  Threshold of tumor cell numbers for HPV-16 detection: 15.0 tumor cells
HPV-16 [1]; Sample # 31
  Threshold of tumor cell numbers for HPV-16 detection: 0.6 tumor cells
HPV-16 [1]; Sample # 32
  Threshold of tumor cell numbers for HPV-16 detection: 15.0 tumor cells
HPV-16 [1]; [5]
  Sensitivity, 1 cell: 0.281*
  Sensitivity, 3 cells: 0.438
  Sensitivity, 10 cells: 0.688
  Sensitivity, 30 cells: 0.938*
  Sensitivity, 100 cells: 0.969*
HPV16 DNA [2]
  Accuracy - Plasma Blind Panel, Negative % Agreement: 100%
  Accuracy - Plasma Blind Panel, Positive % Agreement: 100%
  Accuracy - Plasma Blind Panel, Total % Agreement: 100%
HPV16 DNA [2]; first template ('... HPV16')
  Measuring Range - Plasma: 2.0-8.5 log10 log10 copies/mL
HPV16 DNA [2]; [6]
  Limit of Detection - Plasma: 1.5 copies/mL
HPV16 DNA [2]; [7]
  Limit of Detection - Plasma: 22 copies/mL
  Measuring Range - Plasma: 2.0-6.5 log10 log10 copies/mL
HPV-16 [3]; 28 HPV-HNSCC saliva samples
  sensitivity of detection from saliva 20 ng DNA samples: 35.7%
HPV-16 [3]; RT-PCR, 20 ng DNA from HPV-HNSCC saliva samples (FIG. 5)
  slope of standard curve (delta Rn plotted against cycle threshold): −3.5
HPV16 DNA [4]; first template ('... HPV16')
  Measuring Range - Salivary Rinse: 2.0-8.5 log10 log10 copies/mL
HPV16 DNA [4]; [6]
  Limit of Detection - Salivary rinse: 3 copies/mL
HPV16 DNA [4]; [7]
  Limit of Detection - Salivary rinse: 12 copies/mL
  Measuring Range - Salivary Rinse: 2.0-6.5 log10 log10 copies/mL
HPV-16 genome
  reaction under 10 copies of HPV-16 genome: consistent detection
  reaction under 30 copies of HPV-16 genome: consistently amplified
HPV-16 genome; listed as Min-5
  reaction under 10 copies of HPV-16 genome: consistently triplicate reaction; also recorded: could detect
  reaction under 30 copies of HPV-16 genome: react consistently
HPV-16 genome; [8]
  number of reactions against 10 HPV-16 copies: 3 reactions
  number of reactions under 30 HPV-16 copies: 3 reactions
HPV DNA; 28 patients with HPV-positive HNSCC
  sensitivity for the detection of HPV DNA in saliva rinse samples: 79%
HPV DNA; saliva sample from HPV-HNSCC patient # 1
  HPV16 DNA measured by CLIA HPV test: 866000
HPV DNA; saliva sample from HPV-HNSCC patient # 2
  HPV16 DNA measured by CLIA HPV test: 118000
HPV DNA; saliva sample from HPV-HNSCC patient # 3
  HPV16 DNA measured by CLIA HPV test: 47600
HPV DNA; saliva sample from HPV-HNSCC patient # 4
  HPV16 DNA measured by CLIA HPV test: 104000
HPV DNA; saliva sample from HPV-HNSCC patient # 7
  HPV16 DNA measured by CLIA HPV test: 9790
HPV DNA; saliva sample from HPV-HNSCC patient # 8
  HPV16 DNA measured by CLIA HPV test: 3590
HPV DNA; saliva sample from HPV-HNSCC patient # 9
  HPV16 DNA measured by CLIA HPV test: 2600
HPV DNA; saliva sample from HPV-HNSCC patient # 12
  HPV16 DNA measured by CLIA HPV test: 127
HPV DNA; saliva sample from HPV-HNSCC patient # 13
  HPV16 DNA measured by CLIA HPV test: 290
HPV DNA; saliva sample from HPV-HNSCC patient # 14
  HPV16 DNA measured by CLIA HPV test: 114
HPV DNA; saliva sample from HPV-HNSCC patient # 15
  HPV16 DNA measured by CLIA HPV test: 160
HPV DNA; saliva sample from HPV-HNSCC patient # 16
  HPV16 DNA measured by CLIA HPV test: 121
HPV DNA; saliva sample from HPV-HNSCC patient # 17
  HPV16 DNA measured by CLIA HPV test: 67.4
HPV DNA; saliva sample from HPV-HNSCC patient # 18
  HPV16 DNA measured by CLIA HPV test: 15.8
HPV DNA; saliva sample from HPV-HNSCC patient # 19
  HPV16 DNA measured by CLIA HPV test: 61.1
HPV DNA; saliva sample from HPV-HNSCC patient # 20
  HPV16 DNA measured by CLIA HPV test: 30.9
HPV DNA; saliva sample from HPV-HNSCC patient # 21
  HPV16 DNA measured by CLIA HPV test: 25.7
HPV DNA; saliva sample from HPV-HNSCC patient # 22
  HPV16 DNA measured by CLIA HPV test: 2.68
HPV DNA; saliva sample from HPV-HNSCC patient # 23
  HPV16 DNA measured by CLIA HPV test: 1.82
HPV DNA; saliva sample from HPV-HNSCC patient # 24
  HPV16 DNA measured by CLIA HPV test: 14.4
HPV DNA; saliva sample from HPV-HNSCC patient # 25
  HPV16 DNA measured by CLIA HPV test: 2.76
HPV DNA; saliva sample from HPV-HNSCC patient # 27
  HPV16 DNA measured by CLIA HPV test: 2.17
